pKd: −log10 of the molar value.
How the values were obtained:
[1] = biological target: Fc-tagged SARS-CoV-2 spike receptor-binding domain (RBD) (SARS-CoV-2) (UniProt P0DTC2); experiment: BLI; Fc-tagged RBD (20 ug/ml) loaded on anti-hIgG Fc Capture (AHC) biosensors, Fab in solution; room temperature; 1x PBS pH 7.4, 0.01% BSA, 0.002% Tween 20; 1:1 binding model
[2] = biological target: Fc-tagged SARS-CoV-2 RBD (SARS-CoV-2) (UniProt P0DTC2); experiment: BLI; Octet Red96e, room temperature; Fc-tagged RBD (20 μg/ml) loaded on anti-hIgG Fc Capture (AHC) biosensors, Fab in solution; 1× kinetics buffer (1× PBS pH 7.4, 0.01% BSA, 0.002% Tween 20); 60 s association, 60 s dissociation; 1:1 binding model
[3] = biological target: Fc-tagged SARS-CoV-2 receptor-binding domain (RBD), wild type (SARS-CoV-2) (UniProt P0DTC2); experiment: BLI; Fc-tagged RBD (20 ug/ml) loaded on anti-hIgG Fc Capture (AHC) biosensors, Fab in solution at four to five concentrations; Octet Red96e, room temperature, 1x kinetics buffer (1x PBS pH 7.4, 0.01% w/v BSA, 0.002% v/v Tween 20); 1:1 binding model

Substance: CC12.3 Fab, F58 (wild type)
- pKd [1]: 7.85

Substance: COVD21-C8 heavy chain paired with the light chain of COV107-23 (Fab)
- pKd [2]: < 6.00

Substance: COV107-23 Fab, Y58 variant (heavy chain F58Y)
- pKd [1]: 6.44

Substance: CC12.3 Fab, wild type
- pKd [3]: 7.85

Substance: COV107-23 paired with the light chain of COVD21-C8 (Fab)
- pKd [2]: < 6.00

From publication PMC8217500
